The values that follow come from patent US20040219635A1 (Dana-Farber, published 2004).

Ends that are not written are not given here.

Test [1] has as its target T1, HA-pVHL (UniProt P40337 1-213).
T1 construct: In the cells it sits in complexes; also called 35S-HA-pVHL; 35S-labeled pVHL
Nature of the test: peptide elution of HIF from anti-HA immunoprecipitates of HA-pVHL (ts20 cells); failure to displace.

Test [2] concerns the target T2, pVHL (form used not given) (UniProt P40337 1-213).
T2 construct: also called wild-type pVHL
Nature of the test: binding to GST-ODD after phosphatase treatment; unpublished data (16).

The target of test [3] is T3, immobilized GST-pVHL, elongin B, elongin C complexes (UniProt P40337 54-213; Q15370 1-118; Q15369 17-112).
T3 construct: also called GST-VBC; GST-VHL, elongin B, elongin C complexes
Nature of the test: capture of 35S-labeled protein on immobilized GST-VBC.

Test [4] has as its target T1, HA-pVHL. Nature of the test: peptide binding assay; unpublished data (16).

T1 sequence (P40337 whole entry): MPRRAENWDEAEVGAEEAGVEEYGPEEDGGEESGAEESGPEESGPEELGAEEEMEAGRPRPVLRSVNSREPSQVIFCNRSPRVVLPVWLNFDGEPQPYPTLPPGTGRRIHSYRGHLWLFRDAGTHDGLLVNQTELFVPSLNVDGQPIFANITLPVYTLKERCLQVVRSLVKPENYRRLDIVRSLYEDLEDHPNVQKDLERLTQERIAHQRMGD
T2 sequence (P40337 whole entry): as above

B1: biotinylated HIF1α(556-575) Pro564Ala peptide (peptide, UniProt Q16665 556-575, looked up)
peptide: DLDLEMLAAYIPMDDDFQLR
modifications: also: biotinylated (site not given here)
Regarding B1, the binding result with HA-pVHL [1] is “no binding (tested: 7 µg of peptide in 65 µl of PBS)”.

B2: GST-HIF1α(530-652) produced in E. coli and preincubated with rabbit reticulocyte lysate (other, UniProt Q16665 530-652, looked up)
chain: EFKLELVEKLFAEDTEAKNPFSTQDTDLDLEMLAPYIPMDDDFQLRSFDQLSPLESSSASPESASPQSTVTVFQQTQIQEPTANATTTTATTDELKTVTKDRMEDIKILIASPSPTHIHKETT
modifications: modified by a factor in reticulocyte lysate; later examples identify the modification as hydroxylation of Pro 564
notes: range 530-652; Incubated with rabbit reticulocyte lysate for 90 min at 30° C; also called GST-ODD; not shown: glutathione S-transferase (GST) fusion partner
For B2, the binding result in test [2] is on record as “binds”.

B3: Leu562Ala Gal4-HA-HIF1α(530-652) (other)
chain: EFKLELVEKLFAEDTEAKNPFSTQDTDLDLEMAAPYIPMDDDFQLRSFDQLSPLESSSASPESASPQSTVTVFQQTQIQEPTANATTTTATTDELKTVTKDRMEDIKILIASPSPTHIHKETT
notes: range 530-652; also called Gal4-ODD Leu562Ala; not shown: Gal4 portion
B3: the binding result in test [3] is reported as “no binding”.

B4: Pro564Ala Gal4-HA-HIF1α(530-652) (other)
chain: EFKLELVEKLFAEDTEAKNPFSTQDTDLDLEMLAAYIPMDDDFQLRSFDQLSPLESSSASPESASPQSTVTVFQQTQIQEPTANATTTTATTDELKTVTKDRMEDIKILIASPSPTHIHKETT
notes: range 530-652; also called Gal4-ODD Pro564Ala; not shown: Gal4 portion
Take B4: the binding result in test [3] was “no binding”.

B5: biotinylated HIF (556-575) peptide with Met561 and Met568 replaced with alanine (peptide, UniProt Q16665 556-575, looked up)
peptide: DLDLEALAPYIPADDDFQLR
modifications: also: biotinylated (site not given here)
notes: Made for the mass spectrometry experiments
As to B5, the binding result with HA-pVHL [4] is recorded as “binds”.
